Residue numbers refer to the chain shown, from its start.
Tests used:
Assay in all cases: cell_activity
Conditions in all cases: PAM TTAAA; HEK293T
Nuclease M E401R E401R = system: T1, Nuclease M E401R E401R
T1 sequence: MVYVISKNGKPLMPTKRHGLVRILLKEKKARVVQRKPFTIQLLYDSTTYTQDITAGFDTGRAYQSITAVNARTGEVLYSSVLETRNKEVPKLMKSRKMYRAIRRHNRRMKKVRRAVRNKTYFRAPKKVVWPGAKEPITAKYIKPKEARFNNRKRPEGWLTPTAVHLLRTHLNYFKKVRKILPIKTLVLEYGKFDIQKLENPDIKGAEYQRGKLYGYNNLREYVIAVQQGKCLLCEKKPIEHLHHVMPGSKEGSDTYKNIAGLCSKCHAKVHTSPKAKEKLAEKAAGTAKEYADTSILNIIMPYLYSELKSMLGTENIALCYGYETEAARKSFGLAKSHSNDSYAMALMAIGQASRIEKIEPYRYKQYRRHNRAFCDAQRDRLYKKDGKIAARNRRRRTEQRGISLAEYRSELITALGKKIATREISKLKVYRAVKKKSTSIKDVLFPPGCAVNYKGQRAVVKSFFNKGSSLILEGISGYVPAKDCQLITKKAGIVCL

Nuclease M E88R E88R = system: T2, Nuclease M E88R E88R
T2 sequence: T1 sequence with E88R, R401E

Nuclease M A373R A373R = system: T3, Nuclease M A373R A373R
T3 sequence: T1 sequence with A373R, R401E

Nuclease M E83R E83R = system: T4, Nuclease M E83R E83R
T4 sequence: T1 sequence with E83R, R401E

Nuclease M S95R S95R = system: T5, Nuclease M S95R S95R
T5 sequence: T1 sequence with S95R, R401E

Nuclease M L92R L92R = system: T6, Nuclease M L92R L92R
T6 sequence: T1 sequence with L92R, R401E

## GAGCCUGGUCCAUGGAGAGUGUCAACUACCCCCGUCUAAAGACGGAGGCAUGAGGUUUCGUAACCAAGUGUUGUACCUGCGGGUACAGUAGUUGAACAGGCGGCGAUGCGGCUGGGCACUCCAGGAUGCCACUCCCAGUCCCGGACACUGCCGACGAGCCGCAUCAAGCCGGGGGAGACCAACCGGCUAACGAUAGCCGAGCAAUUACCUAAAAAGAGGUGCAAAGGAAAUGGUAU / GAGCCTGGTCCATGGAGAGT / ACTCTCCATGGACCAGGCTC [Nuclease M VEGFA-T5 guide ; Nuclease M VEGFA-T5 target]
Nuclease M E401R E401R
  binding signal (fold vs Nuclease M): 1.77
Nuclease M E88R E88R
  binding signal (fold vs Nuclease M): 2.09
Nuclease M A373R A373R
  binding signal (fold vs Nuclease M): 1.53
Nuclease M E83R E83R
  binding signal (fold vs Nuclease M): 1.71
Nuclease M S95R S95R
  binding signal (fold vs Nuclease M): 2.05
Nuclease M L92R L92R
  binding signal (fold vs Nuclease M): 1.81
